Reference: patent US20240117038A1 (Ablynx, published 2024)
Positions count from the first letter of the chain named. Numbers in names are those of the source. Each block holds one binder with its values, some of them ahead of it.

Experiments:
[1] = target: T1, cynomolgus CX3CR1 (cynomolgus monkey (Macaca fascicularis), UniProt P49238 1-355 (human entry)); assay: flow cytometry on CHO K1 cyCX3CR1 cells, 30 uM HSA
T1 construct: Overexpressed on CHO K1 cells; also called cyno CX3CR1; cyCX3CR1
T1 chain: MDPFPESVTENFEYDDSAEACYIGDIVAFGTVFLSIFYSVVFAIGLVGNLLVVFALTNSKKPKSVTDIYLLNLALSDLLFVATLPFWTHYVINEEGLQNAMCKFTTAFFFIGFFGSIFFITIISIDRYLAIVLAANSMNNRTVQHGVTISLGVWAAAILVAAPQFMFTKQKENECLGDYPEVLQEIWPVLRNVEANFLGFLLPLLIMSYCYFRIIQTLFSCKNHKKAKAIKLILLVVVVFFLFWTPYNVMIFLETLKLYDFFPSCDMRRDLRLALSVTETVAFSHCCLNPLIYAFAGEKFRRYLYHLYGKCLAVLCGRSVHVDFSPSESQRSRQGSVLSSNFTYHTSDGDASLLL
Description: (§1) CHO cells overexpressing human or cynomolgus CX3CR1 were generated using techniques known in the art. Cells were harvested and resuspended in assay buffer (PBS, 2% FBS, 0.05% NaN3) and seeded separately in 384-well Bio-One V-bottom plates (Greiner, Cat. No. 781280), with a total of 2E04 cells seeded per well. After washing, serial dilutions of multivalent ISVD construct (starting from 250 nM, 3-fold dilution, 11 points, diluted in assay buffer), were added and incubated for 4 hours at 4° C. Binding was performed in the presence of 30 uM HSA (Sigma-Aldrich, Cat. No. A8763). Plates were then washed 3 times and cells were incubated with an anti-VHH mouse antibody (3300-fold diluted in assay buffer) for 30 minutes at 4′° C. […] Plates were finally washed 3 times and cells were resuspended in PI (Miltenyi Biotec, Cat. No. 130-093-233, 1000-fold diluted in assay buffer). Cell suspensions were analyzed with iQue Screener PLUS (Intellicyt). EC50s were estimated by dose response modelling. Curves were fit using 4 parameter logistic regression in GraphPad (GraphPad Software Inc.). A purified anti-human CX3CR1 antibody [K0124E1] (BioLegend, Cat. No. 355701/355702) was used as positive control to detect CX3CR1 expression on the cell surface.

[2] = target: T2, human CX3CR1 V249I/T280M (human, UniProt P49238 1-355); assay: flow cytometry on transiently transfected HEK293T cells, human CX3CR1 V249I/T280M
T2 construct: Transiently transfected in HEK293T cells (pcDNA3.1); also called huCX3CR1 variant V249I and T280M
T2 chain: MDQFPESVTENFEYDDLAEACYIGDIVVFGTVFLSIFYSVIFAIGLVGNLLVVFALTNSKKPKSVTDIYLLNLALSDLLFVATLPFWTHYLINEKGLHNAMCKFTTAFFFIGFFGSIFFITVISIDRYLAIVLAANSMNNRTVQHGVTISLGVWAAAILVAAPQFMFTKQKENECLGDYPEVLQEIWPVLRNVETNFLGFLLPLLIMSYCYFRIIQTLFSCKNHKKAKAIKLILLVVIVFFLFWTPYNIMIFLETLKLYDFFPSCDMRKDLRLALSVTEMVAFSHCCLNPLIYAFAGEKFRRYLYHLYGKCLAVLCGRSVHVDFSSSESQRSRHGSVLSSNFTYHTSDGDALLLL
Description: as §1, with “After” for “CHO cells overexpressing human or cynomolgus CX3CR1 were generated using techniques known in the art. Cells were harvested and resuspended in assay buffer (PBS, 2% FBS, 0.05% NaN3) and seeded separately in 384-well Bio-One V-bottom plates (Greiner, Cat. No. 781280), with a total of 2E04 cells seeded per well. After”
(§2) Two important SNPs are described in huCX3CR1, i.e. V2491 (Rs3732379) and T280M (Rs3732378), which might influence receptor activity and binding by the ISVD. […] Different combinations of these SNPs were introduced in human CX3CR1, and binding by 5 selected multivalent ISVD constructs was assessed with flow cytometry after transient transfection of the huCX3CR1 variants in HEK293T cells.
In short, the CX3CR1 constructs were cloned into pcDNA3.1 (ThermoFisher Scientific, Cat. No. V79020) and plasmid DNA was prepared from Escherichia coli TOP10 cells. HEK293T cells were seeded at a concentration of 1.5E06 cells per T75 flask and incubated overnight at 37° C. in DMEM medium (Gibco, Cat. No. 31966) supplemented with 10% FBS (Sigma. Cat. No. F7524). The medium was then replaced by Opti-MEM medium (Gibco, Cat. No. 31985). A mixture of 9 μg plasmid DNA, 27 μL Fugene 6 (Promega, Cat. No. E2691) in a final volume of 1 mL Opti-MEM was incubated for 15 minutes at room temperature and then added to the cells. After 3 hours incubation at 37° C., 10 mL of DMEM supplemented with 20% FBS was added, and incubation continued.

[3] = target: T1, cynomolgus CX3CR1; assay: flow cytometry on CHO K1 cells; tied to A041600085 by Table B-4 (5.6E-10 against 1.7E-10)
Description: as §1

[4] = target: T2, human CX3CR1 V249I/T280M; assay: flow cytometry on HEK293T cells transiently transfected with human CX3CR1 V249I + T280M; detection with anti-VHH mouse antibody and goat anti-mouse Fc APC, as in Example 5.1
Description: Plates were then washed 3 times and cells were incubated with an anti-VHH mouse antibody (3300-fold diluted in assay buffer) for 30 minutes at 4′° C. […] Plates were finally washed 3 times and cells were resuspended in PI (Miltenyi Biotec, Cat. No. 130-093-233, 1000-fold diluted in assay buffer). Cell suspensions were analyzed with iQue Screener PLUS (Intellicyt). EC50s were estimated by dose response modelling. Curves were fit using 4 parameter logistic regression in GraphPad (GraphPad Software Inc.). A purified anti-human CX3CR1 antibody [K0124E1] (BioLegend, Cat. No. 355701/355702) was used as positive control to detect CX3CR1 expression on the cell surface.
as §2
In short, the CX3CR1 constructs were cloned into pcDNA3.1 (ThermoFisher Scientific, Cat. No. V79020) and plasmid DNA was prepared from Escherichia coli TOP10 cells. […]

B1: A041600025 (VHH)
chain: DVQLVESGGGSVQPGGSLRLSCAASGSIFSSTAMAWYRQAPGKQRDLVAVISTVGITKYADSVKGRFTISRDNAKNTVYLQMNSLRPEDTALYYCTSDARRGWDTRYWGQGTLVTVSSGGGGSGGGSEVQLVESGGGVVQPGGSLRLSCAASGFTFRSFGMSWVRQAPGKGPEWVSSISGSGSDTLYADSVKGRFTISRDNSKNTLYLQMNSLRPEDTALYYCTIGGSLSRSSQGTLVTVSSGGGGSGGGSEVQLVESGGGSVQPGGSLRLSCAASGSIFSSTAMAWYRQAPGKQRDLVAVISTVGITKYADSVKGRFTISRDNAKNTVYLQMNSLRPEDTALYYCTSDARRGWDTRYWGQGTLVTVSSA
notes: Trivalent ISVD construct (two anti-CX3CR1 ISVDs, one anti-albumin ISVD), C-terminal alanine included in the entry; also called 54A12_SO (E1D)-9GS-ALB23002-9GS-54A12_SO-A
EC50 [1]: 0.36 nM
top [1]: 266000
EC50 [2]: 0.17 nM

B2: A041600034 (VHH)
chain: B1 chain with Q295R, V301A, S303N, I307V, A350P
notes: Trivalent ISVD construct; also called 54A12_SO (E1D)-9GS-ALB23002-9GS-66B02_SO-A
EC50 [1]: 0.45 nM
top [1]: 273000
EC50 [2]: 0.09 nM

B4: A041600035 (VHH)
chain: DVQLVESGGGSVQPGGSLRLSCAASGSIFSSTAMAWYRQAPGKQRDLVAVISTVGITKYADSVKGRFTISRDNAKNTVYLQMNSLRPEDTALYYCTSDARRGWDTRYWGQGTLVTVSSGGGGSGGGSEVQLVESGGGSVQPGGSLRLSCAASGSIFSSTAMAWYRQAPGKQRDLVAVISTVGITKYADSVKGRFTISRDNAKNTVYLQMNSLRPEDTALYYCTSDARRGWDTRYWGQGTLVTVSSGGGGSGGGSEVQLVESGGGVVQPGGSLRLSCAASGFTFRSFGMSWVRQAPGKGPEWVSSISGSGSDTLYADSVKGRFTISRDNSKNTLYLQMNSLRPEDTALYYCTIGGSLSRSSQGTLVTVSSA
notes: Trivalent ISVD construct (two anti-CX3CR1 ISVDs, one anti-albumin ISVD), C-terminal alanine included in the entry; also called 54A12_SO (E1D)-9GS-54A12_SO-9GS-ALB23002-A
EC50 [1]: 0.24 nM
top [1]: 411000
EC50 [2]: 0.27 nM

Next, values leading:

EC50 [1]: 0.56 nM
top [1]: 186000
fold difference in EC50 (cyno CX3CR1 against human CX3CR1) [3]: 3.3 fold
binding result [4]: binds
B3: A041600085 (VHH)
chain: DVQLVESGGGLVQPGGSLRLSCAASGSIFSSTAMAWYRQAPGKRRDLVAAISTVGVTKYADSVKGRFTISRDNSKNTVYLQMNSLRPEDTAVYYCTSDPRRGWDTRYWGQGTLVTVSSGGGGSGGGSEVQLVESGGGVVQPGGSLRLSCAASGFTFRSFGMSWVRQAPGKGPEWVSSISGSGSDTLYADSVKGRFTISRDNSKNTLYLQMNSLRPEDTALYYCTIGGSLSRSSQGTLVTVSSGGGGSGGGSEVQLVESGGGLVQPGGSLRLSCAASGSIFSSTAMAWYRQAPGKRRDLVAAISTVGVTKYADSVKGRFTISRDNSKNTVYLQMNSLRPEDTAVYYCTSDPRRGWDTRYWGQGTLVTVSSA
notes: also called 307-9GS-ALB23002-9GS-307 (D1E)-A

EC50 [1]: 0.15 nM
top [1]: 346000
binding result [4]: binds
B5: A041600041 (VHH)
chain: B4 chain with Q171R, V177A, S179N, I183V, A226P
notes: Trivalent ISVD construct (two anti-CX3CR1 ISVDs, one anti-albumin ISVD), C-terminal alanine included in the entry; also called 54A12_SO (E1D)-9GS-66B02_SO-9GS-ALB23002-A
